# Results published in US20180326082A1 (Sanofi, published 2018).
# B1: 40 kD monoSAM PEGylated rhTSH (ligand)
# chain 1: not shown
# chain 2: FCIPTEYTMHIERRECAYCLTINTTICAGYCMTRDINGKLFLPKYALSQDVCTYRDFIYRTVEIPGCPLHVAPYFSYPVALSCKCGKCNTDYSDCIHEAIKTNYCTKPQKSY
# modifications: see alpha chain; glycan at ASN23 is a possible PEG site; one 40 kD aminoxy PEG per protein on periodate-oxidized sialic acid of an N-linked glycan (ASN52 or ASN78 of alpha, or ASN23 of beta); 58% of the conjugate modified on the alpha subunit
# notes: Sialic acid-mediated (SAM) monoPEGylation of rhTSH; also called 40 kD SAM; mono-40 kDa aminoxy PEG-TSH (SAM PEGylation)
# B2: 20 kD monoSAM PEGylated rhTSH (ligand)
# chain 1: not shown
# chain 2: B1 chain 2
# modifications: see alpha chain; glycan at ASN23 is a possible PEG site; one 20 kD aminoxy PEG per protein on periodate-oxidized sialic acid of an N-linked glycan (ASN52 or ASN78 of alpha, or ASN23 of beta)
# notes: Sialic acid-mediated (SAM) monoPEGylation of rhTSH; also called 20 kD SAM
# B3: 40 kD N-terminal mono-PEGylated rhTSH (ligand)
# chain 1: not shown
# chain 2: B1 chain 2
# modifications: see alpha chain; one 40 kD aldehyde PEG per protein at an N-terminus (reductive amination); which subunit is not stated
# B4: 40 kD GAM+ PEGylated rhTSH (ligand)
# chain 1: not shown
# chain 2: B1 chain 2
# modifications: see alpha chain; glycan at ASN23 is a possible PEG site; sialic acid removed with neuraminidase; one 40 kD aminoxy PEG per protein on galactose oxidase-oxidized galactose of an N-linked glycan (ASN52 or ASN78 of alpha, or ASN23 of beta); 66% of the conjugate modified on the alpha subunit
# B5: 10 kD multiSAM PEGylated rhTSH (ligand)
# chain 1: not shown
# chain 2: B1 chain 2
# modifications: see alpha chain; glycan at ASN23 is a possible PEG site; more than one 10 kD aminoxy PEG per protein on periodate-oxidized sialic acid of the N-linked glycans (ASN52, ASN78 of alpha; ASN23 of beta); split between sites not stated
# B6: 20 kD GAM+ PEGylated rhTSH (ligand)
# chain 1: not shown
# chain 2: B1 chain 2
# modifications: see alpha chain; glycan at ASN23 is a possible PEG site; sialic acid removed with neuraminidase; one 20 kD aminoxy PEG per protein on galactose oxidase-oxidized galactose of an N-linked glycan (ASN52 or ASN78 of alpha, or ASN23 of beta)
# B7: 40 kD GAM- PEGylated rhTSH (ligand)
# chain 1: not shown
# chain 2: B1 chain 2
# modifications: see alpha chain; glycan at ASN23 is a possible PEG site; one 40 kD aminoxy PEG per protein on galactose oxidase-oxidized galactose of an N-linked glycan (ASN52 or ASN78 of alpha, or ASN23 of beta); 77% of the conjugate modified on the alpha subunit
# B8: 20 kD GAM- PEGylated rhTSH (ligand)
# chain 1: not shown
# chain 2: B1 chain 2
# modifications: see alpha chain; glycan at ASN23 is a possible PEG site; one 20 kD aminoxy PEG per protein on galactose oxidase-oxidized galactose of an N-linked glycan (ASN52 or ASN78 of alpha, or ASN23 of beta)
# B9: recombinant human TSH (rhTSH), THYROGEN Thyroid Stimulating Hormone (ligand)
# chain 1: not shown
# chain 2: B1 chain 2
# modifications: N-linked carbohydrate chain at ASN23; N-linked carbohydrate chains at ASN52 and ASN78
# notes: Heterodimer of alpha and beta subunit; also called TSH control; control TSH, starting material
# B10: 10 kD monoSAM PEGylated rhTSH (ligand)
# chain 1: not shown
# chain 2: B1 chain 2
# modifications: see alpha chain; glycan at ASN23 is a possible PEG site; one 10 kD aminoxy PEG per protein on periodate-oxidized sialic acid of an N-linked glycan (ASN52 or ASN78 of alpha, or ASN23 of beta)
# notes: Sialic acid-mediated (SAM) monoPEGylation of rhTSH; also called 10 kD SAM
# B11: 40 kD Lysine mono-PEGylated rhTSH (ligand)
# chain 1: not shown
# chain 2: B1 chain 2
# modifications: see alpha chain; one 40 kDa NHS PEG per protein on a lysine; which lysine and subunit are not stated
# notes: SEC fraction of the mono-PEGylated species; also called mono-40 kDa NHS PEG-TSH (Lysine PEGylation)
# B12: 60 kD 4-arm PEG G22C rhTSH (ligand)
# chain 1: not shown
# chain 2: B1 chain 2
# modifications: 60 kD 4-arm cysteine-reactive PEG on Cys22
# B13: 40 kD linear PEG G22C rhTSH (ligand)
# chain 1: not shown
# chain 2: B1 chain 2
# modifications: 40 kD linear cysteine-reactive PEG on Cys22
# notes: also called 40 kD linear G22C; 40 kD G22C
# B14: 60 kD 2-arm PEG G22C rhTSH (ligand)
# chain 1: not shown
# chain 2: B1 chain 2
# modifications: 60 kD 2-arm cysteine-reactive PEG on Cys22
# B15: 50 kD 3-arm PEG G22C rhTSH (ligand)
# chain 1: not shown
# chain 2: B1 chain 2
# modifications: 50 kD 3-arm cysteine-reactive PEG on Cys22
# B16: 40 kD 4-arm PEG G22C rhTSH (ligand)
# chain 1: not shown
# chain 2: B1 chain 2
# modifications: 40 kD 4-arm cysteine-reactive PEG on Cys22
# B17: 40 kD 2-arm PEG G22C rhTSH (ligand)
# chain 1: not shown
# chain 2: B1 chain 2
# modifications: 40 kD 2-arm cysteine-reactive PEG on Cys22
# B18: G22C rhTSH (ligand)
# chain 1: not shown
# chain 2: B1 chain 2
# modifications: introduced cysteine found capped after expression and purification
# notes: Cysteine mutant without PEG, produced from CHO cells; also called TSH G22C(alpha); G22C(a)
# Target: T1, porcine TSH receptor (porcine, UniProt Q8SPP9 22-764, limits assumed)
# T1 construct: Bought, coated on kit plates; the construct is not described; also called immobilized porcine TSH receptor
# T1 sequence (Q8SPP9 22-764 limits assumed): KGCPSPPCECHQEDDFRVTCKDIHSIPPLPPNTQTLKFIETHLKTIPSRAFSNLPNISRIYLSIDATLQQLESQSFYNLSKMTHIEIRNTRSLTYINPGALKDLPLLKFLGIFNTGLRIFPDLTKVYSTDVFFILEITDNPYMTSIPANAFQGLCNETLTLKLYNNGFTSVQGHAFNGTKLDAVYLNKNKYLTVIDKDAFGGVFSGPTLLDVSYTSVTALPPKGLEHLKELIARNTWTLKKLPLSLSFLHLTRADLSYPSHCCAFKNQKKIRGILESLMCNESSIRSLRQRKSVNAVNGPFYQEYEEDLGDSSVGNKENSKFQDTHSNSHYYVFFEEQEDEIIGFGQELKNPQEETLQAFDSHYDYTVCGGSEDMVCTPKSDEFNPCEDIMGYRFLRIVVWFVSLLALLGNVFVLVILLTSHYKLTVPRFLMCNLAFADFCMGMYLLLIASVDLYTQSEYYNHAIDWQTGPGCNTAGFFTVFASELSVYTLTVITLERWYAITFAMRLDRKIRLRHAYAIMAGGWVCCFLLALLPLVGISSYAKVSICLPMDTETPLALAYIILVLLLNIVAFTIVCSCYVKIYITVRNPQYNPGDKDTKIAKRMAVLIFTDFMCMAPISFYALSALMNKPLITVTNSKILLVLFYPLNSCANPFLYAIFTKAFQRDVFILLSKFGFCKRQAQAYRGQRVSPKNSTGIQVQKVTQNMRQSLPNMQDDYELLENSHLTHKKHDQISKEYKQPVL
# Test: competition ELISA; displacement of biotinylated rhTSH from immobilized porcine TSH receptor
# Procedure: (§1) Purified PEGylated conjugates were analyzed by in vitro porcine TSH receptor binding assay using the TSH Receptor Autoantibody 2nd Generation ELISA kit from RSR Limited (Kronus, Star, Id.). Instead of using the biotinylated human monoclonal autoantibody to the TSH receptor provided by the kit, we biotinylated Thyrogen® (rhTSH) to use for competitive inhibition of binding to TSH receptor. Binding of biotinylated rhTSH to immobilized porcine TSH receptor was inhibited by either rhTSH control or PEGylated rhTSH conjugates and IC₅₀ values were measured.
# (§2) Thyrogen® was biotinylated with 1.7 to 1.8 biotins per protein using the ChromaLink™ Biotin Labeling Reagent according to the manufacturer's protocol (QED Bioscience Inc., San Diego, Calif.) and buffer exchanged into 50 mM sodium phosphate, 150 mM sodium chloride pH 7.0 with a Zeba™ Desalt Spin Column (Thermo Scientific, Rockford, Ill.). In vitro measurement of receptor binding was performed by competition of biotinylated Thyrogen® and PEG-rhTSH conjugate for binding to porcine TSH receptor immobilized onto 96-well plates supplied with the TSH Receptor Autoantibody 2nd Generation ELISA kit from RSR Limited (Kronus, Star, Id.). PEG-rhTSH conjugates were serially diluted 1:5 from 16 μM to 41 pM in assay buffer (100 mM HEPES pH 7.5, 20 mM EDTA, 1% BSA, 0.5% Triton X-100) and mixed 1:1 with biotinylated Thyrogen® diluted 1000-fold in assay buffer. The mixture was added to each receptor-coated well and incubated at 25° C. for 25 minutes. Unbound rhTSH was washed away and streptavidin peroxidase was added at 25° C. for 20 minutes according to the RSR Limited ELISA protocol to determine the amount of biotinylated Thyrogen® bound to the plate. The plate was then washed three times to remove excess unbound streptavidin peroxidase and then tetramethylbenzidine (TMB) was added to each well and incubated in the dark at 25° C. for 30 minutes. The reaction which was quenched with 0.5M sulfuric acid stop buffer and the absorbance of each well was read at 450 nm using a SpectraMax® 340pc plate reader (Molecular Devices, Sunnyvale, Calif.). The data was fit using a sigmoidal dose response equation with GraphPad Prism software to generate IC₅₀ values.
IC50 [µM],fold change (IC50 against rhTSH) [fold],Binder
0.196,5.3,B1
0.0923,2.5,B2
0.397,10.8,B3
0.133,3.6,B4
0.138,3.8,B5
0.0817,2.2,B6
0.294,8,B7
0.101,2.7,B8
0.0367,1,B9
0.0781,2.1,B10
0.876,31.2,B11

# Target: T1, porcine TSH receptor
# Test: in vitro TSH receptor binding assay (competition ELISA)
row,"fold decrease of in vitro TSH receptor binding affinity, compared to the rhTSH control [fold]",Binder
1,11.1,B3

# Target: T1, porcine TSH receptor
# Test: competition ELISA; displacement of biotinylated rhTSH from immobilized porcine TSH receptor
# Remark: another data set of the same source
# Procedure: as §1, §2
IC50 [µM],fold change (IC50 against rhTSH) [fold],Binder
0.319,11.4,B3
0.028,1,B9
0.876,31.2,B11
4020,144000,B12
0.248,8.9,B13
11.3,404,B14
0.281,10,B15
0.743,26.5,B16
0.417,14.9,B17
0.0416,1.5,B18
